The values that follow come from PMC3326528.

First the molecules themselves.
B1: T80A (Streptantibioticus cattleyicolor; T80A) (protein)
chain: AANSTRRPIIAFMSDLGTTDDSVAQCKGLMYSICPDVTVVDVCHSMTPWDVEEGARYIVDLPRFFPEGTVFATTTYPAAGTTTRSVAVRIKQAAKGGARGQWAGSGAGFERAEGSYIYIAPNNGLLTTVLEEHGYLEAYEVTSPKVIPEQPEPTFYSREMVAIPSAHLAAGFPLSEVGRPLEDHEIVRFNRPAVEQDGEALVGVVSAIDHPFGNVWTNIHRTDLEKAGIGYGARLRLTLDGVLPFEAPLTPTFADAGEIGNIAIYLNSRGYLSIARNAASLAYPYHLKEGMSARVEAR
B2: S158G (Streptantibioticus cattleyicolor; S158G) (protein)
chain: AANSTRRPIIAFMSDLGTTDDSVAQCKGLMYSICPDVTVVDVCHSMTPWDVEEGARYIVDLPRFFPEGTVFATTTYPATGTTTRSVAVRIKQAAKGGARGQWAGSGAGFERAEGSYIYIAPNNGLLTTVLEEHGYLEAYEVTSPKVIPEQPEPTFYGREMVAIPSAHLAAGFPLSEVGRPLEDHEIVRFNRPAVEQDGEALVGVVSAIDHPFGNVWTNIHRTDLEKAGIGYGARLRLTLDGVLPFEAPLTPTFADAGEIGNIAIYLNSRGYLSIARNAASLAYPYHLKEGMSARVEAR
B3: T80S (Streptantibioticus cattleyicolor; T80S) (protein)
chain: AANSTRRPIIAFMSDLGTTDDSVAQCKGLMYSICPDVTVVDVCHSMTPWDVEEGARYIVDLPRFFPEGTVFATTTYPASGTTTRSVAVRIKQAAKGGARGQWAGSGAGFERAEGSYIYIAPNNGLLTTVLEEHGYLEAYEVTSPKVIPEQPEPTFYSREMVAIPSAHLAAGFPLSEVGRPLEDHEIVRFNRPAVEQDGEALVGVVSAIDHPFGNVWTNIHRTDLEKAGIGYGARLRLTLDGVLPFEAPLTPTFADAGEIGNIAIYLNSRGYLSIARNAASLAYPYHLKEGMSARVEAR
B4: S158A (Streptantibioticus cattleyicolor; S158A) (protein)
chain: AANSTRRPIIAFMSDLGTTDDSVAQCKGLMYSICPDVTVVDVCHSMTPWDVEEGARYIVDLPRFFPEGTVFATTTYPATGTTTRSVAVRIKQAAKGGARGQWAGSGAGFERAEGSYIYIAPNNGLLTTVLEEHGYLEAYEVTSPKVIPEQPEPTFYAREMVAIPSAHLAAGFPLSEVGRPLEDHEIVRFNRPAVEQDGEALVGVVSAIDHPFGNVWTNIHRTDLEKAGIGYGARLRLTLDGVLPFEAPLTPTFADAGEIGNIAIYLNSRGYLSIARNAASLAYPYHLKEGMSARVEAR

Substrate in the data set: C[S+](CC[C@H](N)C(=O)[O-])C[C@H]1O[C@@H](n2cnc3c(N)ncnc32)[C@H](O)[C@@H]1O
Put plainly: Discontinuous HPLC assay of 5′-FDA formation with SAM varied at 200 mM fluoride. The format is biochemical. The conditions noted are these: pH 7.8; 25.0 °C.
B1: the Km came out at 3.0 ± 0.4 µM and the kcat worked out at 8.33e-05 ± 3.33e-06 s⁻¹.
Consider B2, for which the Km turned out to be 0.8 ± 0.5 µM and the kcat stood at 1.17e-05 ± 5e-07 s⁻¹.
Taken in the same sequence, the figures for B3 were 4.7 ± 0.4 µM and 0.001 ± 3.33e-05 s⁻¹.
Taken in the same sequence, the figures for B4 were 9.2 ± 1.2 µM and 0.00015 ± 1e-05 s⁻¹.

In general, Km refers to the substrate concentration at which the rate is half of its maximum. For orientation: kcat means the number of substrate molecules converted per active site and unit of time at saturation.
